Data reported in publication PMC6563307.

What was measured:
[1] = target: Vip3Ab1-740 (full length, not digested) (Bacillus thuringiensis); assay: SEC; analytical size exclusion chromatography of the full-length protein incubated overnight without midgut fluid, pH 10.0; 6 µL injected at 150 µg/mL; size estimated from molecular weight standards
[2] = target: Vip3Ab1 (full length, not digested) (Bacillus thuringiensis); assay: as above
[3] = target: Vip3Ab1 processed by midgut fluid (~65 kDa and ~20 kDa products that remain associated) (Bacillus thuringiensis); assay: SEC; analytical size exclusion chromatography after overnight digestion at pH 10.0, 30 °C, with S. frugiperda or S. eridania midgut fluid; 6 µL injected at 150 µg/mL; size estimated from molecular weight standards
[4] = target: Vip3Ab1-740 processed by midgut fluid (~65 kDa and ~20 kDa products that remain associated) (Bacillus thuringiensis); assay: as above

## Vip3Ab1-740 (full length, not digested)
[1]
  stoichiometry N: 4

## Vip3Ab1 (full length, not digested) (natural protein)
[2]
  stoichiometry N: 4

## Vip3Ab1 processed by midgut fluid (~65 kDa and ~20 kDa products that remain associated) (complex)
[3]
  stoichiometry N: 4

## Vip3Ab1-740 processed by midgut fluid (~65 kDa and ~20 kDa products that remain associated) (complex)
[4]
  stoichiometry N: 4
